B1: sd1.040 monoclonal antibody (IgG) (antibody, V domains shown)
VH: QVQLVQSGAEVKKPGASVKVSCKASGYTFTSFYIHWVRQAPGQGLEWMGIIDPSGGSTSYPQKFQGRVTMTRDTSTSTVYMDLSSLRSEDTAVYYCTRDGSAGDNSWFDPWGQGTLVTVSS
VL: not shown
B2: fp.006 monoclonal antibody (IgG) (antibody, V domains shown)
VH: EVQLVESGGGVVQPGGSLRLSCAASGFNFNNYALHWVRQAPGKGLEWVAIISYEARNKKYGVSVMGRFSISRDNSKSIMYLEMNSLRVEDTGVYYCARDLFLSDYDRSGYDPTRGGFDHWGQGTLVTVSS
VL: EIVMTQSPATLSVSPGERATLSCRASQSVSSSLAWYQHRFGQAPRLLISGASTRATGIPGRFSGSGSGTEFTLTISSLQSEDVAVYYCQQYGDWPLVTFGGGTKVEIK
B3: fp.006 Fab (Fab, V domains shown)
VH: B2 VH
VL: B2 VL

What was measured:
[1] = molecular target: T1, SARS-CoV-2 S protein, C-terminally truncated (pSARS-CoV2-S_trunc), ancestral, on 293T cells (SARS-CoV-2 ancestral (Wuhan), UniProt P0DTC2); experiment: cell-based or functional assay
[2] = molecular target: T1, SARS-CoV-2 S protein, C-terminally …; experiment: flow cytometry on cells
[3] = molecular target: SARS-CoV-2 fusion peptide (FP) peptide 812…831 (SARS-CoV-2 ancestral, Biotin-Ahx at the N-terminus; C-terminal amidation); experiment: crystal structure

Binder | IC50 of neutralisation of SARS-CoV-2 pseudovirus (ancestral) [1] | fold increase of binding with soluble ACE2 [2] | binding result [3]
B1 | 0.245 µg/mL | – | –
B2 | 0.737 µg/mL | 5.8 fold | –
B3 | – | – | binds

Reference: publication PMC9727766 (bioRxiv, 2022)
